# Measurements: IntAct's records for PubMed 16488887
# B1: Prospero homeobox protein 1 (Homo sapiens), Q92786 (parent)
# chain: MPDHDSTALLSRQTKRRRVDIGVKRTVGTASAFFAKARATFFSAMNPQGSEQDVEYSVVQHADGEKSNVLRKLLKRANSYEDAMMPFPGATIISQLLKNNMNKNGGTEPSFQASGLSSTGSEVHQEDICSNSSRDSPPECLSPFGRPTMSQFDMDRLCDEHLRAKRARVENIIRGMSHSPSVALRGNENEREMAPQSVSPRESYRENKRKQKLPQQQQQSFQQLVSARKEQKREERRQLKQQLEDMQKQLRQLQEKFYQIYDSTDSENDEDGNLSEDSMRSEILDARAQDSVGRSDNEMCELDPGQFIDRARALIREQEMAENKPKREGNNKERDHGPNSLQPEGKHLAETLKQELNTAMSQVVDTVVKVFSAKPSRQVPQVFPPLQIPQARFAVNGENHNFHTANQRLQCFGDVIIPNPLDTFGNVQMASSTDQTEALPLVVRKNSSDQSASGPAAGGHHQPLHQSPLSATTGFTTSTFRHPFPLPLMAYPFQSPLGAPSGSFSGKDRASPESLDLTRDTTSLRTKMSSHHLSHHPCSPAHPPSTAEGLSLSLIKSECGDLQDMSEISPYSGSAMQEGLSPNHLKKAKLMFFYTRYPSSNMLKTYFSDVKFNRCITSQLIKWFSNFREFYYIQMEKYARQAINDGVTSTEELSITRDCELYRALNMHYNKANDFEVPERFLEVAQITLREFFNAIIAGKDVDPSWKKAIYKVICKLDSEVPEIFKSPNCLQELLHE
# partner: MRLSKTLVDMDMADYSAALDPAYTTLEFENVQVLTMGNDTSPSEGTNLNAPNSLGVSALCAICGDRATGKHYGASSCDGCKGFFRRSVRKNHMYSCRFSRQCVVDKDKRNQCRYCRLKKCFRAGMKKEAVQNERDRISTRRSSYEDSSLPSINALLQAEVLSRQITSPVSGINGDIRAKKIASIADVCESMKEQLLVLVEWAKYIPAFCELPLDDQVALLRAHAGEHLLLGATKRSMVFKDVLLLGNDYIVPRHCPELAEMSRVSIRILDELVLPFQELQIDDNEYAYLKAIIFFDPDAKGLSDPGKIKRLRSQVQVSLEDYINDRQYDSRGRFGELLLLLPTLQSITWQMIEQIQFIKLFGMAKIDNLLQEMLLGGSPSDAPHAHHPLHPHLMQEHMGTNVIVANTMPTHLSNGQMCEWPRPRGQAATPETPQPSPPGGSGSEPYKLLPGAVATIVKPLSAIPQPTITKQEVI
# Variants of: B1
# Settings: with hnf4a_human HNF4A
row,Variant,effect of a mutation on the interaction
1,L70A;L73A,disrupting interaction
